Assay results taken from patent US20110207221.

Assays:
Assay in all cases: cell_activity
[1] = system: ZFN 16245 (POU5F1) (synthetic); conditions: K562; two ZFN pairs co-transfected, deletion only with both
[2] = system: ZFN 11177 (BAK del. B) (synthetic); conditions: CHO-K1; BAK deletion B, two ZFN pairs
[3] = system: ZFN 10344 (BAK) (synthetic); conditions: CHO-K1; BAK deletion, two ZFN pairs
[4] = system: ZFN 16248 (POU5F1) (synthetic); conditions: K562; two ZFN pairs co-transfected
[5] = system: ZFN 16247 (POU5F1) (synthetic); conditions: K562; two ZFN pairs co-transfected
[6] = system: ZFN 11183 (BAK) (synthetic); conditions: CHO-K1; BAK deletion, two ZFN pairs
[7] = system: ZFN 10311 (BAK) (synthetic); conditions: CHO-K1; BAK deletion, two ZFN pairs
[8] = system: ZFN 10317 (BAK del. A) (synthetic); conditions: CHO-K1; BAK deletion A, two ZFN pairs
[9] = system: ZFN 10342 (BAK) (synthetic); conditions: CHO-K1; BAK deletion, two ZFN pairs
[10] = system: ZFN 16246 (POU5F1) (synthetic); conditions: K562; two ZFN pairs co-transfected

**Q.** For “AAGCTGGTCTGGTGGCTAGGTAGATCCT (double strand) [POU5F1 site of 16245]”, which activity (% cells with deletion) [1] is on record?
**A.** 4

**Q.** How did the activity (% cells with deletion) [2] turn out when “AGGATTAGGAGGATGGGATTTGGCACTG (double strand) [BAK site of 11177]” was run?
**A.** 1

**Q.** For “ATCAGGAAGAGGCTGGGTGTCACAGCGT (double strand) [BAK site of 10344]”, which activity (% cells with deletion) [3] is on record?
**A.** 1

**Q.** With “ATGAGTCAGTGAACAGGGAATGGGTGAA (double strand) [POU5F1 site of 16248]” as the sequence, how does the activity (% cells with deletion) [4] read?
**A.** 4

**Q.** Which activity (% cells with deletion) [5] does the source give for “ATGTAACAAAGGACTACTCTTCCCCCAG (double strand) [POU5F1 site of 16247]” here?
**A.** 4

**Q.** Which activity (% cells with deletion) [6] does the source give for “CACGGGCCCAGGGTGGGGCAGAAAGCCC (double strand) [BAK site of 11183]” here?
**A.** 1

**Q.** With “CAGCACGGGCCCAGGGTGGGGCAGAAAG (double strand) [BAK site of 10311]” as the sequence, how does the activity (% cells with deletion) [7] read?
**A.** 1

**Q.** For “GCCAGGATTAGGAGGATGGGATTTGGCA (double strand) [BAK site of 10317]”, which activity (% cells with deletion) [8] is on record?
**A.** 1

**Q.** With “GCGGCCAGGCCAAGGCAGACTTTCTGAC (double strand) [BAK site of 10342]” as the sequence, how does the activity (% cells with deletion) [9] read?
**A.** 1

**Q.** For “GGGCTCTGGAAGGCCCACTTCAGGGCCT (double strand) [POU5F1 site of 16246]”, which activity (% cells with deletion) [10] is on record?
**A.** 4
